Results taken from article doi:10.1101/2020.08.16.252742.

Assays:
[1] = molecular target: HIV-1 NL4-3 Env glycoprotein (unlabelled) on HIV-1 Gag-GFP pseudovirions (HIV-1 NL4-3); experiment: single-molecule photobleaching
[2] = molecular target: HIV-1 JR-FL Env glycoprotein (unlabelled) on HIV-1 Gag-GFP pseudovirions (HIV-1 JR-FL); experiment: single-molecule photobleaching

HIV-1 NL4-3 Env glycoprotein (unlabelled) on HIV-1 Gag-GFP pseudovirions (complex)
stoichiometry N [1]: > 3 Envs

HIV-1 JR-FL Env glycoprotein (unlabelled) on HIV-1 Gag-GFP pseudovirions (complex)
stoichiometry N [2]: > 2 Envs
